This is an account of results in US7642046B2, “Method for monitoring recruitment of proteins to the intracellular domain of a receptor in intact cells” (priority 2001, dated 2010).

Holding throughout (assay type): cell-based
In one test the target is T1, CD40 mutants (Homo sapiens, UniProt P25942, E235A).
T1 construct: expressed in transfected cells; host or cells: 293T
Briefly: Recruitment assay in intact cells with CD40 mutants (deletions or point mutations in TRAF binding sites). The conditions noted are these: E235A, relative to wild type CD40. The protocol: The lysates were cleared by centrifugation at 15000 G at 4° C. in a micro-centrifuge, 3 fold serially diluted (with lysis buffer containing 1% bovine serum albumin) and then every diluted sample incubated for 2 hours at room temperature (or overnight) in wells of ELISA microtiter plates coated with a mAb (Ro1) specific to the CD40 extra-cellular domain (Schwabe et al. 1997). For control purposes, instead of the wild type CD40 plasmid, a plasmid encoding a CD40 mutant lacking the entire signaling domain was used for transfection and transient expression (CD401-222, FIG. 1B). Following incubation exhaustive washes were carried out on the microtiter plates to remove any unbound protein [about 10 washing steps with PBS containing 0.05% Tween 20) PBS/Tween)]. To detect bound TRAF1, anti TRAF1 specific antibodies were loaded into the plates, incubated for about 3 hours at room temperature, […] by extensive washes to remove unbound antibody and detecting the bound antibody with an HRP conjugated secondary antibody. All antibodies (except when used as solid phase antibody) were diluted in PBS/Tween containing 1% BSA.
(§1) The recruitment of TRAF to CD40 can be quantitatively measured using the assay described in example 1. For that purpose, the assay conditions were adjusted in such a way that TRAF expression was in significant excess over the expression of CD40. This was the case when the TRAF expression plasmid was used at a two to three fold excess over the CD40 expression plasmid. The CD40 bound TRAF concentration was measured as described in example 1. A reference extract containing CD40/TRAF complexes served as a standard in each assay. This standard extract consisted of a large pool extract from cells that had been co-transfected with the plasmids encoding CD40/TRAF1, CD40/TRAF2, CD40/TRAF3, CD40/TRAF5 and CD40/TRAF6. The extracts were tested for the presence of CD40/TRAF complexes and the complex concentrations in each extract were arbitrarily defined as 1000 U/ml. The extracts were frozen in small aliquots and kept at −80° C. until further use. By comparing unknown samples to these extracts, it was possible to determine the relative CD40-TRAF complex concentrations in arbitrary units. The necessary normalization for sample-to-sample variations in the CD40 expression was calculated with the following formula: […]
The quantitative version of the TRAF recruitment assay as described in example 3 was used to compare CD40 and various CD40 mutants with respect to their TRAF recruitment behaviour. TRAF 1, 2, 3, 5 and 6 were examined. […] Additional deletion of the TRAF1/2/3/5 binding motif PXQXT254 at amino acid position 250 to 254 reduced the binding of all 5 TRAFs test to background levels (1-254EA in FIG. 3B). […]

In another test the target is T2, LTβR (Homo sapiens, UniProt P25942+P36941).
T2 construct: cDNA fragments encoding for the transmembrane and cytoplasmic domains of the LTβR, TACI, the p75TNF receptor, CD27; expressed in transfected cells; host or cells: 293T
T2 sequence (P25942+P36941 fused): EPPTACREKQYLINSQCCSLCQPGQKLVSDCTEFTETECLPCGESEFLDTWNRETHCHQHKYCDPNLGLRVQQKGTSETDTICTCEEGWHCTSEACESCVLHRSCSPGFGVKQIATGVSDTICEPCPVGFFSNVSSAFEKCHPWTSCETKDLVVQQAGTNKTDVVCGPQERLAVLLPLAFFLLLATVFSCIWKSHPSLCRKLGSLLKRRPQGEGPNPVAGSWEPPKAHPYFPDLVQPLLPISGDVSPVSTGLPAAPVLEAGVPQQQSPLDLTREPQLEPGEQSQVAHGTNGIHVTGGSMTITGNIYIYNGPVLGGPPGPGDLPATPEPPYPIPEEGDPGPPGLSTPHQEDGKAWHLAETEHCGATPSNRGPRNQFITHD
Briefly: Recruitment assay with hybrid receptor (CD40 extracellular domain, LTβR transmembrane and intracellular domain). The conditions noted are these: 293T cells. As to the method: as §1
Recruitment of various TRAFs to receptors different to CD40, was tested by the recruitment assay described in example 1 by transforming cells with expression plasmids encoding hybrids receptors comprising the extracellular domain of CD40 and transmembrane and intracellular domain of anyone of the following receptors: BCMA (Madry et al. 1998 and Hatzoglou et al. 2000) the LTβR-receptor (Mosialos et al. 1995, Crowe et al. 1994, Nakano et al. 1996), TACI (von Bulow et al. 1997, Xia et al. 2000) the p75TNFR (Rothe et al. 1994) and the CD27 (Gravestein et al. 1998, Akiba et al. 1998) (for details of constructs see example 7). Measurement of TRAF recruitment to the signalling domains of BCMA the LTβR-receptor TACI the p75TNFR or the CD27 was carried out by co-transfecting 293T cells with a plasmid encoding anyone of the above hybrid receptors together with a plasmid encoding TRAF and measurement of the TRAF/Receptor complex using the ELISA sandwich described in example 1 and the quantitation as described in example 3. The assay with the hybrid receptors is schematically represented in FIG. 4A. The results shown in FIG. 4B indicate that, using the assay monitoring recruitment in intact cells, any TRAF recruiting receptor of the TNF/NGF family can be examined with the same antibody sandwich assay described in example 1 and the amount of TRAF-receptor/CD40 hybrid complex can be monitored as described in example 3. […] Recruitment of TRAF3 to all the receptors tested is similar. […]

Another test deals with T3, TACI (Homo sapiens, UniProt O14836+P25942).
T3 construct: cDNA fragments encoding for the transmembrane and cytoplasmic domains of the LTβR, TACI, the p75TNF receptor, CD27; expressed in transfected cells; host or cells: 293T
T3 sequence (P25942+O14836 fused, species assumed): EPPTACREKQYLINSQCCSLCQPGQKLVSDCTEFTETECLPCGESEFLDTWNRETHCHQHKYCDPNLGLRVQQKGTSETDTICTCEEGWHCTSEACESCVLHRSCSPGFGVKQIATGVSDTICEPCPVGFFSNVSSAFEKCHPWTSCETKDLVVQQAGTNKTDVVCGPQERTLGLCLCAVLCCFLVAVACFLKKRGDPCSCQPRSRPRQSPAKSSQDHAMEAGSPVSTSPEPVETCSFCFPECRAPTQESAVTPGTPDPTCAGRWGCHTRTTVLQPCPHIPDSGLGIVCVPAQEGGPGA
Briefly: Recruitment assay with hybrid receptor (CD40 extracellular domain, TACI transmembrane and intracellular domain). The conditions noted are these: 293T cells. As to the method:
as §1

A further test addresses T4, CD27 (Homo sapiens, UniProt P25942+P26842).
T4 construct: cDNA fragments encoding for the transmembrane and cytoplasmic domains of the LTβR, TACI, the p75TNF receptor, CD27; expressed in transfected cells; host or cells: 293T
Briefly: Recruitment assay with hybrid receptor (CD40 extracellular domain, CD27 transmembrane and intracellular domain). The conditions noted are these: 293T cells. As to the method: as §1

A further test deals with T5, p75TNFR (Homo sapiens, UniProt P20333+P25942).
T5 construct: cDNA fragments encoding for the transmembrane and cytoplasmic domains of the LTβR, TACI, the p75TNF receptor, CD27; expressed in transfected cells; host or cells: 293T
T5 sequence (P25942+P20333 fused): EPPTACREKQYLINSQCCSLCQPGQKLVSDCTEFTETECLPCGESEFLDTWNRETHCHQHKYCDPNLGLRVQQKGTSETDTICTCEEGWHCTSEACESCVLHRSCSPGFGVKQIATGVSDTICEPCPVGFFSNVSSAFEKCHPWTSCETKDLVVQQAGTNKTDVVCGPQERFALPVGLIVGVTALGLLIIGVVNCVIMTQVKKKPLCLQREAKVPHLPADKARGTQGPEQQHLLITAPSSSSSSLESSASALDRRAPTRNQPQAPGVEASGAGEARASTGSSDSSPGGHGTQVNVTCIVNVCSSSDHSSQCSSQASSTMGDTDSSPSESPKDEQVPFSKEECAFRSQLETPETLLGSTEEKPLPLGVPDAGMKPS
Briefly: Recruitment assay with hybrid receptor (CD40 extracellular domain, p75TNFR transmembrane and intracellular domain). The conditions noted are these: 293T cells. The protocol:
as §1, with “By comparing unknown samples to these extracts, it was possible to determine the relative CD40-TRAF complex concentrations in arbitrary units.” left out
Recruitment of various TRAFs to receptors different to CD40, was tested by the recruitment assay described in example 1 by transforming cells with expression plasmids encoding hybrids receptors comprising the extracellular domain of CD40 and transmembrane and intracellular domain of anyone of the following receptors: BCMA (Madry et al. 1998 and Hatzoglou et al. 2000) the LTβR-receptor (Mosialos et al. 1995, Crowe et al. 1994, Nakano et al. 1996), TACI (von Bulow et al. 1997, Xia et al. 2000) the p75TNFR (Rothe et al. 1994) and the CD27 (Gravestein et al. 1998, Akiba et al. 1998) (for details of constructs see example 7). Measurement of TRAF recruitment to the signalling domains of BCMA the LTβR-receptor TACI the p75TNFR or the CD27 was carried out by co-transfecting 293T cells with a plasmid encoding anyone of the above hybrid receptors together with a plasmid encoding TRAF and measurement of the TRAF/Receptor complex using the ELISA sandwich described in example 1 and the quantitation as described in example 3. […]

In the next test the target is T6, BCMA (Homo sapiens, UniProt P25942+Q02223).
T6 construct: transmembrane and intracellular domain of anyone of the following receptors: BCMA; expressed in transfected cells; host or cells: 293T
T6 sequence (P25942+Q02223 fused, species assumed): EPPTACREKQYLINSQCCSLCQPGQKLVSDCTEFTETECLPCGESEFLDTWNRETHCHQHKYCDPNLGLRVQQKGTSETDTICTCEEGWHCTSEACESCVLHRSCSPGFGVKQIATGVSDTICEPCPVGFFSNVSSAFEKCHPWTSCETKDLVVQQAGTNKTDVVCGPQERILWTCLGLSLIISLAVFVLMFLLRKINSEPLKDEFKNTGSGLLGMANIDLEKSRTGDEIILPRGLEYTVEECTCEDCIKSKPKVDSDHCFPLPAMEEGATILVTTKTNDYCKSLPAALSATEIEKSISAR
Briefly: Recruitment assay with hybrid receptor (CD40 extracellular domain, BCMA transmembrane and intracellular domain). The conditions noted are these: 293T cells. The protocol: as §1

The next test has as its target T7, CD40 (Homo sapiens, UniProt P25942).
T7 construct: expressed in transfected cells; host or cells: HEK 293T
Briefly: Recruitment of NIK to CD40 via TRAF2 in 293T cells, anti-CD40 capture ELISA with anti NIK detection. An excerpt: The assay described in example 1 can be used to measure recruitment of signal proteins, e.g. NIK (a downstream mediator in the NF-κB pathway Malinin et al. 1997) to a cytokine receptor, e.g. CD40 via an adaptor protein e.g. TRAF2. Expression plasmids encoding CD40, TRAF2, NIK (in pcDNA3.1) and myc-tagged IKKα were co-transfected into 293T (at a ratio of 1:1.75:1.75:1.75 respectively). Empty vector was used to equalize the amount of transfected DNA. The transfection was done as described for example 1. Twenty seven hours later the cells were extracted as described in example 1. The lysates were incubated with ELISA plates coated with an anti CD40 mAb (R01, Schwabe et al. 1997). After two hours the plates were washed with PBS/tween and developed with a commercially available rabbit anti NIK antibody (Santa Cruz at 1:100 dilution, SC-6363) and HRP-labeled goat anti rabbit Ig antibody (Pharmingen). The recruitment assay for NIK is schematically represented in FIG. 5A.

T1 sequence (P25942 21-277 E235A): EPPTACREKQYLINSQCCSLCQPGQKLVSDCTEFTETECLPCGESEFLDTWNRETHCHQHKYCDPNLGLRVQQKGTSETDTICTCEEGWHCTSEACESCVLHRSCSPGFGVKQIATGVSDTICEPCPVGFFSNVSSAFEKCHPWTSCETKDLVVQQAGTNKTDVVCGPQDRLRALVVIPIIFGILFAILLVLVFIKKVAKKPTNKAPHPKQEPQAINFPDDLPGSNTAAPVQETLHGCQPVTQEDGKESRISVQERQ
T7 sequence (P25942 21-277): as the sequence (P25942 21-277 E235A) above, with A215E counted along it
T4 sequence (P25942+P26842 fused, species assumed): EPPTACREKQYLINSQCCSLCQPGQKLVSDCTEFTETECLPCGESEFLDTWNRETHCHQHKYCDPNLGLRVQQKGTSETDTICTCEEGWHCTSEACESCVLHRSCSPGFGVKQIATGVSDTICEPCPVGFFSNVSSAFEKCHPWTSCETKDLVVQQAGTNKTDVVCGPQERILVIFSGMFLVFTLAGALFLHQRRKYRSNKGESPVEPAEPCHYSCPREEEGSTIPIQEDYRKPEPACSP

B1: TRAF5: TRAF5 adaptor protein, expressed as tagged deletion mutant, amino acids 145 to 557 (protein, UniProt O00463 145-557, looked up, fragment)
chain: REPVLRKDLKEHLSASCQFRKEKCLYCKKDVVVINLQNHEENLCPEYPVFCPNNCAKIILKTEVDEHLAVCPEAEQDCPFKHYGCAVTDKRRNLQQHEHSALREHMRLVLEKNVQLEEQISDLHKSLEQKESKIQQLAETIKKLEKEFKQFAQLFGKNGSFLPNIQVFASHIDKSAWLEAQVHQLLQMVNQQQNKFDLRPLMEAVDTVKQKITLLENNDQRLAVLEEETNKHDTHINIHKAQLSKNEERFKLLEGTCYNGKLIWKVTDYKMKKREAVDGHTVSIFSQSFYTSRCGYRLCARAYLNGDGSGRGSHLSLYFVVMRGEFDSLLQWPFRQRVTLMLLDQSGKKNIMETFKPDPNSSSFKRPDGEMNIASGCPRFVAHSVLENAKNAYIKDDTLFLKVAVDLTDLEDL
modifications: His tag
As for B1, the “recruitment to CD40 mutant E235A” value with CD40 mutants was “reduced recruitment”. Besides, in the test with LTβR (CD40 as relative standard), the “recruitment to LTβR, folds higher than recruitment to CD40” value is “about 152 fold”.

B2: TRAF3: TNF receptor associated factor 3, adaptor protein expressed from pcDNA3 (protein, UniProt Q13114 1-568, looked up)
chain: MESSKKMDSPGALQTNPPLKLHTDRSAGTPVFVPEQGGYKEKFVKTVEDKYKCEKCHLVLCSPKQTECGHRFCESCMAALLSSSSPKCTACQESIVKDKVFKDNCCKREILALQIYCRNESRGCAEQLMLGHLLVHLKNDCHFEELPCVRPDCKEKVLRKDLRDHVEKACKYREATCSHCKSQVPMIALQKHEDTDCPCVVVSCPHKCSVQTLLRSELSAHLSECVNAPSTCSFKRYGCVFQGTNQQIKAHEASSAVQHVNLLKEWSNSLEKKVSLLQNESVEKNKSIQSLHNQICSFEIEIERQKEMLRNNESKILHLQRVIDSQAEKLKELDKEIRPFRQNWEEADSMKSSVESLQNRVTELESVDKSAGQVARNTGLLESQLSRHDQMLSVHDIRLADMDLRFQVLETASYNGVLIWKIRDYKRRKQEAVMGKTLSLYSQPFYTGYFGYKMCARVYLNGDGMGKGTHLSLFFVIMRGEYDALLPWPFKQKVTLMLMDQGSSRRHLGDAFKPDPNSSSFKKPTGEMNIASGCPVFVAQTVLENGTYIKDDTIFIKVIVDTSDLPDP
modifications: full-length
notes: TNF receptor associated factor 3, adaptor protein expressed from pcDNA3
For B2, the “recruitment to TACI compared with the other receptors tested” value in the test with TACI is reported as “similar”. Also, the “recruitment to CD27 compared with the other receptors tested” value with CD27 is given as “similar”. In the test with p75TNFR, the “recruitment to p75TNFR compared with the other receptors tested” value was “similar”. For the same molecule, the “recruitment to CD40 mutant E235A” value with CD40 mutants is on record as “reduced recruitment”. Besides, in the test with BCMA, the “recruitment to BCMA compared with the other receptors tested” value is recorded as “similar”. Moreover, in the test with LTβR, the “recruitment to LTβR compared with the other receptors tested” value is reported as “similar”.

B3: NIK: kinase, a downstream mediator in the NF-κB pathway, recruited to CD40 via TRAF2 (protein, UniProt Q99558 1-947, looked up)
Mitogen-activated protein …: MAVMEMACPGAPGSAVGQQKELPKAKEKTPPLGKKQSSVYKLEAVEKSPVFCGKWEILNDVITKGTAKEGSEAGPAAISIIAQAECENSQEFSPTFSERIFIAGSKQYSQSESLDQIPNNVAHATEGKMARVCWKGKRRSKARKKRKKKSSKSLAHAGVALAKPLPRTPEQESCTIPVQEDESPLGAPYVRNTPQFTKPLKEPGLGQLCFKQLGEGLRPALPRSELHKLISPLQCLNHVWKLHHPQDGGPLPLPTHPFPYSRLPHPFPFHPLQPWKPHPLESFLGKLACVDSQKPLPDPHLSKLACVDSPKPLPGPHLEPSCLSRGAHEKFSVEEYLVHALQGSVSSGQAHSLTSLAKTWAARGSRSREPSPKTEDNEGVLLTEKLKPVDYEYREEVHWATHQLRLGRGSFGEVHRMEDKQTGFQCAVKKVRLEVFRAEELMACAGLTSPRIVPLYGAVREGPWVNIFMELLEGGSLGQLVKEQGCLPEDRALYYLGQALEGLEYLHSRRILHGDVKADNVLLSSDGSHAALCDFGHAVCLQPDGLGKSLLTGDYIPGTETHMAPEVVLGRSCDAKVDVWSSCCMMLHMLNGCHPWTQFFRGPLCLKIASEPPPVREIPPSCAPLTAQAIQEGLRKEPIHRVSAAELGGKVNRALQQVGGLKSPWRGEYKEPRHPPPNQANYHQTLHAQPRELSPRAPGPRPAEETTGRAPKLQPPLPPEPPEPNKSPPLTLSKEESGMWEPLPLSSLEPAPARNPSSPERKATVPEQELQQLEIELFLNSLSQPFSLEEQEQILSCLSIDSLSLSDDSEKNPSKASQSSRDTLSSGVHSWSSQAEARSSSWNMVLARGRPTDTPSYFNGVKVQIQSLNGEHLHIREFHRVKVGDIATGISSQIPAAAFSLVTKDGQPVRYDMEVPDSGIDLQCTLAPDGSFAWSWRVKHGQLENRP
As for B3, in the test with CD40 (myc-tagged IKKα co-transfected), the “recruitment of NIK to CD40 when IKK was co-expressed” value is on record as “clearly improved”. Moreover, in the test with CD40 (with or without TRAF2 co-transfection), the “recruitment of NIK to CD40, dependence on adaptor” value is recorded as “TRAF2 dependent”.
